Reference: paper PMC4506568, “Targeting a Dynamic Protein–Protein Interaction: Fragment Screening against the Malaria Myosin A Motor Complex” (Chemmedchem, 2014)
Where no end group is shown, it is not given here. 8e = not defined here

T1: Plasmodium falciparum myosin A tail domain interacting protein, residues 61–204 (PfMTIPΔ60) (Plasmodium falciparum, UniProt Q8I4W8 61-204)
T1 construct: source: 15N-labeled for NMR; not shown: His tag, N-terminal, kept
T1 sequence: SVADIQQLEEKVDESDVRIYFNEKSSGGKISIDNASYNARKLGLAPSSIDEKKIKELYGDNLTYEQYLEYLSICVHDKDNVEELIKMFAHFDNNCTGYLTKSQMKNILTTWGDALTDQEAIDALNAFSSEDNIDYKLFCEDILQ

B1: PfmyoA(799–818) (peptide)
peptide: KNIPSLLRVQAHIRKKMVAQ
notes: myosin A (PfmyoA) C-terminal tail, Plasmodium falciparum, residues 799–818; also called myoA tail; myoA tail peptide
B2: peptide–fragment chimera1 (fragment 8 functionality – glycine spacer – myoA tail from Leu 805) (peptide)
peptide: 8e-GLRVQAHIRKKMVAQ
modifications: reading uncertain
notes: myosin A (PfmyoA) C-terminal tail, Plasmodium falciparum, PfmyoA(799–818) truncated at its N-terminal end to Leu 805; called the shortest chimera; source: synthetic peptide (Fmoc-based solid-phase peptide synthesis)
B3: peptide–fragment chimera2 (fragment 8 functionality – glycine spacer – myoA tail from Leu 804) (peptide)
peptide: 8e-GLLRVQAHIRKKMVAQ
modifications: reading uncertain
notes: myosin A (PfmyoA) C-terminal tail, Plasmodium falciparum, PfmyoA(799–818) truncated at its N-terminal end to Leu 804; source: synthetic peptide (Fmoc-based solid-phase peptide synthesis)
B4: peptide PfmyoA(803–818) (peptide)
peptide: SLLRVQAHIRKKMVAQ
notes: myosin A (PfmyoA) C-terminal tail, Plasmodium falciparum, residues 803–818; also called PfmyoA tail peptide; positive control PfmyoA tail peptide
B5: peptide–fragment chimera3 (fragment 8 functionality – glycine spacer – myoA tail from Ser 803) (peptide)
peptide: 8e-GSLLRVQAHIRKKMVAQ
modifications: reading uncertain
notes: myosin A (PfmyoA) C-terminal tail, Plasmodium falciparum, PfmyoA(799–818) truncated at its N-terminal end to Ser 803; that chimera3 begins at Ser 803 follows from the order of the list (Leu 805, Leu 804, Ser 803); source: synthetic peptide (Fmoc-based solid-phase peptide synthesis)

Key:
Details in all cases: both partners purified
[1] = molecular target: T1, Plasmodium falciparum myosin A tail …; experiment: protein-detected NMR (1H,15N-HSQC); preformed complex of 100 μM 15N-labeled PfMTIPΔ60 with PfmyoA(799–818), buffer B (20 mM MOPS pH 7.0, 50 mM NaCl, 1 mM TCEP), 10 % D2O, 303 K; fragments 8 or 3 added
[2] = molecular target: T1, Plasmodium falciparum myosin A tail …; experiment: differential scanning fluorimetry; 5 μM PfMTIPΔ60 with 200 μM peptide in buffer A (20 mM HEPES pH 7.5, 50 mM NaCl, 1 mM TCEP), 10× SYPRO Orange, 15–80 °C
[3] = molecular target: T1, Plasmodium falciparum myosin A tail …; experiment: ITC; 303 K; cell with about 200 μL of 20 μM PfMTIPΔ60 in buffer A (20 mM HEPES pH 7.5, 50 mM NaCl, 1 mM TCEP); peptide added in 2 μL injections from 250 μM; single site fit; n=1

Binder	Tm of the complex [2] [°C]	further results
B1	–	binding result [1]: binds
B2	47.8	–
B3	53.4	–
B4	–	ΔTm [2]: 15.3 °C
B5	55.8	Kd [3]: 0.052 µM
